Data taken from patent US20240010687A1 (University of Washington, published 2024).

Key:
[1] = target: T1, 54.7_112_Axle; assay: biolayer interferometry, biotinylated axle on streptavidin tips, ring in solution
T1 construct: Axle of a C3-C3 design (C3 homotrimer); It carries no His tag in the bicistronic pull-down; For biolayer interferometry it was Avi-tagged and biotinylated; also called C3-C3 design 54.7.112
T1 chain: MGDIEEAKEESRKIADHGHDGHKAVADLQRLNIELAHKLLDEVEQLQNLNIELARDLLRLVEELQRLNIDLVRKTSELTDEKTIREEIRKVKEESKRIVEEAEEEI
Method: FIG. 13. Biolayer interferometry assays measuring in vitro assembly of ring and axle parts into a full rotary system. For each 6 designs, the equilibrium binding curves from biolayer interferometry binding assays is shown on the left and the corresponding Biolayer interferometry kinetic binding traces shown on the right. Biotinylated axles were immobilized on the tip and the binding in a solution of fre rings was measured. For both D3-C5 and D3-C3, a fresh ring solution was prepared by buffer exchange from citrate buffer to TBS with reducing agent, and immediately used for binding assays.
Biolayer interferometry experiments were performed on an OctetRED96 BLI system (ForteBio, Menlo Park, CA). Enzymatic protein biotinylation was performed on SEC purified Avi-tagged proteins prior to the assay. The BirA500 (Avidity, LLC) biotinylation kit was used to biotinylate protein from the IMAC elution according to the manufacturer protocol. Reactions were incubated at 4C overnight and purified using size exclusion chromatography on a Superdex™ 6 10/300 Increase GL (GE Healthcare) in TBS buffer (25 mM Tris pH 8.0, 25 mM NaCl). Streptavidin coated biosensors were equilibrated for 10 minutes in Octet buffer (10 mM HEPES pH 7.4, 25 mM NaCl, 3 mM EDTA, 0.05% Surfactant P20) supplemented with 1 mg/ml Bovine Serum Albumin (SigmaAldrich). […]

[2] = target: T2, C3D3_AR113_Axle (D3-C3); assay: negative stain EM after pH-controlled, oxidoreductive assembly of axle and ring
T2 construct: De novo designed D3 homohexameric axle, a surface redesign of 1552_1na0C3_int2_11; For biolayer interferometry the axle was Avi-tagged and enzymatically biotinylated; also called D3 axle; designed D3 axle
T2 chain: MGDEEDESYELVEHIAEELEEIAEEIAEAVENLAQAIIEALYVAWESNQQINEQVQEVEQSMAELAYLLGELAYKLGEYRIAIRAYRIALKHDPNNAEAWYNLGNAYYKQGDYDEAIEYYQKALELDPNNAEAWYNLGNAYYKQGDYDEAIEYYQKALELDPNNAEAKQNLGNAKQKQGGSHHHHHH

[3] = target: T3, 119RC4_20_Axle (D8-C4); assay: stoichiometric mixing of separately purified axle and ring, then SEC, SAXS and EM
T3 construct: D8 homo-16-meric axle; two C4 rings assemble around one axle; also called D8 axle; D8A_1615
T3 chain: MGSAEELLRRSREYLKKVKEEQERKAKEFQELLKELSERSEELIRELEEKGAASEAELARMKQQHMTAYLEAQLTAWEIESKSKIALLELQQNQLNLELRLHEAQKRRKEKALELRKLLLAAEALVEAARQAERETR

B1: 54.7_112_Ring (designed binder)
chain: MGVEELLLLARAAHHSGTTVEEAYKLALKLGISVKELLLLARAAHNSGTTVEEAYKLALKLGISVEELLLLAKAAHYSGTTVEEAYKLALKLGISVRELLLLAKAAHFSGTTVEEAYKLALKLGISVEELLLLARAAHHSGTTVEEAYKLALKLGISVKELLLLARAAHNSGTTVEEAYKLALKLGISVEELLLLAKAAHYSGTTVEEAYKLALKLGISVRELLLLAKAAHFSGTTVEEAYKLALKLGISVEELLLLARAAHHSGTTVEEAYKLALKLGISVKELLLLARAAHNSGTTVEEAYKLALKLGISVEELLLLAKAAHYSGTTVEEAYKLALKLGISVRELLLLAKAAHFSGTTVEEAYKLALKLGISGSHHHHHH
notes: also called C3-C3 design 54.7.112
B1: binds [1].

B2: C3D3_AR113_Ring (D3-C3) (designed binder)
chain: MGQRSGHARQLKRHLHRLRRHLERLDKHAKHLRQILSERPQDERVKDSIDLLEESVRIVKISIKIFEASVRALLWAINKEAEELAKSPDPHDLHRAVRLARAVVQADPGSNLSKKALEIILRAAAELAKLPDPNALAAAARAASQVQREQPGSNLAKAAQEIMRQASRAAEEAARRAKETLEKAEKRGDPKTALQAVRTVVKVAAALNQIATMAGSEEAQERAARVAAEAAELALRVFELAEKQGDPHVARRARKLIQTVLQILLRILTQILETATKIIEEANKLLRKHRRSSRKDPKLVETHVELVKRHERLVRQHLKIALMHALAVLELAFPDAEAAKLASKAAKEAEELCKQSTDERLCDLLAELAALLIELAARYPDSEAAKLALKAALEAIELCKQSTDEELCEELVKLAQKLIELAKRYPDSEEAKRALKEAKELIEQCKESTDEDECRELVKRAEELIREAKEGSHHHHHH
notes: De novo designed C3 homotrimeric ring with disulfides and histidine networks at the subunit interfaces; also called C3 ring; ring of the D3-C3 rotor
B2: binds [2].

B3: 119RC4_20_Ring (D8-C4) (designed binder)
chain: MGCDAIQAAAALGEAGISSNEILELLAAAAELGLDPDAIQAAAQLGEAGISSEEILELLRAAHELGLDPDAIAAAADLGQAGISSEEILELLRAAHELGLDPDAIQAAAALGEAGISSEEILELLRAAHELGLDPDAIQAAAQLGEAGISSEEILELLRAAHELGLDPDCIAAAADLGQAGISSSEITALLLAAAAIELAKRADDKDVREIVRDALELASRSTNDEVIRLALEAAVLAARSTDSDVLEIVKDALELAKQSTNEEVIKLALKAAVLAAKSTDEEVLEEVKEALRRAKESTDEEEIKEELRKAVEEAEGSHHHHHH
notes: C4 ring of four subunits, each fused to DHR20; two rings sit on each D8 axle; also called C4 ring
B3: binds [3].
